Reference: the Human Domainome abundance scans (Beltran et al. 2025)

B1: GAS2-like protein 1, residues 209 to 276; numbered along this chain, Q99501 (parent)
chain: DELVREILGRCTCPDQFPMIKVSEGKYRVGDSSLLIFVRVLRSHVMVRVGGGWDTLEHYLDKHDPCRC

Variants of: B1
Assay: abundance fitness (aPCA) (normalised: wild type 0, dead -1); higher = more abundant; growth selection in yeast, the domain comes from the species named
Settings: Homo sapiens

Abundance fitness, by site and new letter:
G30: Q -0.603; R -0.302; S -0.53; T -0.569; V -0.646; W -0.952
D31: A -0.06; C -0.146; E 0.007; F -0.303; G -0.066; H 0.039; I -0.144; K -0.162; L -0.141; M -0.148; N 0.084; P -0.066; Q 0.048; R -0.087; S -0.07; T 0.059; V -0.146; W -0.153; Y -0.181
S32: A -0.064; D 0.098; E 0.013; F -0.749; G -0.085; H -0.16; I -0.755; K -0.175; M -0.252; N -0.071; P -0.121; Q -0.044; R -0.142; T -0.026; V -0.596; W -0.892; Y -0.455
S33: A -0.019; C -0.115; D 0.039; E 0.113; F -0.549; H 0.014; I -0.856; K 0.028; L -0.194; M -0.074; N 0.113; P 0.01; Q 0.051; R -0.043; T -0.182; V -0.647; W -0.637; Y -0.413
L34: A 0.191; C 0.129; D 0.379; E 0.316; F -0.124; G 0.135; H 0.112; I 0.102; M 0.131; N 0.094; Q 0.238; R -0.312; S 0.154; T 0.05; V 0.103; W -0.085; Y -0.015
L35: A -0.111; C -0.013; D -0.003; E 0.099; F -0.187; G -0.383; H -0.247; I 0.069; K -0.227; M -0.025; N 0.097; Q -0.171; R -0.195; T 0.072; V -0.041; W -0.64; Y -0.022
I36: A -0.209; C 0.169; D -0.863; F -0.346; G -0.683; K -0.398; L 0.148; M 0.058; P -0.592; Q -0.992; R -0.542; S -0.673; T -0.314; V -0.017; W -0.705; Y -0.444
F37: A 0.106; C 0.154; D 0.37; E 0.383; G 0.064; I -0.007; K 0.134; L 0.141; M 0.066; N 0.31; P 0.256; Q 0.248; R 0.189; S 0.306; V 0.054; W 0.051; Y -0.07
V38: A -0.465; C -0.058; F -0.809; G -0.566; I -0.322; L -0.275; M -0.587; N -0.737; P -0.3; Q -0.837; R -0.745; S -0.626; T -0.402
R39: A -0.14; C -0.216; D 0.089; E -0.179; F -0.172; G -0.242; H -0.049; I -0.294; L -0.368; M -0.172; P -0.728; Q -0.03; S -0.144; T -0.058; V -0.236; W -0.695; Y -0.333
V40: C -0.097; E -0.196; F -0.369; G -0.349; H -0.308; K 0.129; M -0.259; N 0.029; P -0.44; Q -0.28; R -0.025; S -0.319; T -0.137; W -0.661; Y -0.26
L41: A -0.148; C -0.09; D 0.011; E 0.143; F -0.143; G -0.293; H 0.175; I 0.148; K -0.171; M 0.098; N -0.068; P -0.86; Q 0.13; R 0.042; S -0.013; V 0.149; W 0.032; Y 0.086
R42: A -0.066; C -0.187; D 0.134; E -0.136; F -0.246; G 0.121; H 0.074; I -0.913; L -0.541; M -0.1; N 0.119; P -0.424; Q -0.005; S -0.143; T -0.334; V -0.639; W -0.289; Y -0.155
S43: A -0.158; E 0.164; F -0.175; G 0.253; L -0.648; M -0.362; N 0.124; P 0.01; T -0.011; V -0.58; W -0.462; Y -0.405
H44: A -0.001; C -0.182; D -0.004; E 0.222; F -0.532; G 0.064; K 0.007; L -0.341; M 0.131; N -0.376; P -0.731; Q 0.103; R 0.142; S 0.099; T 0.074; Y -0.515
V45: A -0.141; C -0.227; F -0.927; H -0.693; I -0.076; L -0.328; M -0.505; P -0.169; Q -0.919; R -0.847; S -0.937; W -0.804
M46: A -0.596; C -0.24; D -0.931; E -0.455; G -0.666; H -0.332; I -0.186; K -0.601; L -0.056; P -0.476; Q -0.093; R -0.541; S -0.642; T -0.299; V -0.322; Y 0.109
V47: A -0.429; C -0.175; D -0.997; E -0.99; F -0.921; G -0.851; K -0.694; L -0.595; M -0.565; N -1.01; P -0.888; Q -1.08; R -0.979; S -1.08; T -0.783; W -0.761; Y -0.386
R48: A -0.446; C -0.224; D -0.256; E -0.191; F -0.404; G -0.236; H -0.102; I -0.542; K 0.142; L -0.495; M -0.225; N 0.087; P -0.539; Q -0.133; S 0.039; T -0.628; V -0.784; W -0.366; Y -0.166
V49: A 0.007; C -0.069; D 0.256; F -0.337; G -0.25; I -0.133; K -0.324; L -0.319; M -0.133; N 0.013; Q 0.146; R -0.247; S -0.048; Y -0.035
G50: A -0.08; C -0.517; D 0.076; E 0.011; F -0.896; H -0.205; I -0.765; K -0.03; L -0.473; M -0.28; N 0.007; P -0.039; Q -0.017; R -0.18; S -0.143; T -0.259; V -0.541; W -0.803; Y -0.5
G51: A 0.024
